In US20240327535A1 (EISAI R AND D MANAGEMENT, published 2024):
Read-outs that look alike come from different tables or passages of the source.

B1: AB200-R1a-Fab(hCDR2) (Fab, V domains shown)
VH: QVQLVQSGAEVKKPGSSVKVSCKASGGTFSNYWMHWVRQAPGQGLEWMGATYRGHSDTYYNQKFKGRVTITADKSTSTAYMELSSLRSEDTAVYYCARGAIYHGYDVLDNWGQGTLVTVSS
VL: DIQMTQSPSSLSASVGDRVTITCSASQDISNYLNWYQQKPGKAPKLLIYAASSLQSGVPSRFSGSGSGTDFTLTISSLQPEDFATYYCQQYRKLPWTFGQGTKLEIKR
B2: AB200-R1a-Fab_Vk1 (Fab, V domains shown)
VH: QVQLVQSGAEVKKPGSSVKVSCKASGGTFSNYWMHWVRQAPGQGLEWMGATYRGHSDTYYNQKFKGRVTITADKSTSTAYMELSSLRSEDTAVYYCARGAIYHGYDVLDNWGQGTLVTVSS
VL: DIQMTQSPSSLSASVGDRVTITCRASQDISSYLNWYQQKPGKAPKLLIYYTSNIHSGVPSRFSGSGSGTDFTLTISSLQPEDFATYYCQQYRKLPWTFGQGTKLEIKR
B3: AB200-R1a-Fab_Vk3 (Fab, V domains shown)
VH: QVQLVQSGAEVKKPGSSVKVSCKASGGTFSNYWMHWVRQAPGQGLEWMGATYRGHSDTYYNQKFKGRVTITADKSTSTAYMELSSLRSEDTAVYYCARGAIYHGYDVLDNWGQGTLVTVSS
VL: DIQMTQSPSSLSASVGDRVTITCSASQDISNYINWYQQKPGKAPKLLIYYTSNMHSGVPSRFSGSGSGTDFTLTISSLQPEDFATYYCQQYRKLPWSFGQGTKLEIKR
B4: AB200-R1a-Fab_Vk4 (Fab, V domains shown)
VH: QVQLVQSGAEVKKPGSSVKVSCKASGGTFSNYWMHWVRQAPGQGLEWMGATYRGHSDTYYNQKFKGRVTITADKSTSTAYMELSSLRSEDTAVYYCARGAIYHGYDVLDNWGQGTLVTVSS
VL: DIQMTQSPSSLSASVGDRVTITCTATQDITNYLNWYQQKPGKAPKLLIYYTSNLHSGVPSRFSGSGSGTDFTLTISSLQPEDFATYYCQQYRKLPWTFGQGTKLEIKR
B5: AB200-R1a-Fab_Vk5 (Fab, V domains shown)
VH: QVQLVQSGAEVKKPGSSVKVSCKASGGTFSNYWMHWVRQAPGQGLEWMGATYRGHSDTYYNQKFKGRVTITADKSTSTAYMELSSLRSEDTAVYYCARGAIYHGYDVLDNWGQGTLVTVSS
VL: DIQMTQSPSSLSASVGDRVTITCSASQDISSYLNWYQQKPGKAPKLLIYYTSNLHSGVPSRFSGSGSGTDFTLTISSLQPEDFATYYCQQYRSTPWTFGQGTKLEIKR
B6: AB200-R1a-Fab_Vk6 (Fab, V domains shown)
VH: QVQLVQSGAEVKKPGSSVKVSCKASGGTFSNYWMHWVRQAPGQGLEWMGATYRGHSDTYYNQKFKGRVTITADKSTSTAYMELSSLRSEDTAVYYCARGAIYHGYDVLDNWGQGTLVTVSS
VL: DIQMTQSPSSLSASVGDRVTITCSATQDISNYLNWYQQKPGKAPKLLIYFTSNLQSGVPSRFSGSGSGTDFTLTISSLQPEDFATYYCQQYRKLPWTFGQGTKLEIKR
notes: also called AB200 kappa variant 6; AB200_Vk6_Fab
B7: AB200-R1a-Fab_Vk7 (Fab, V domains shown)
VH: QVQLVQSGAEVKKPGSSVKVSCKASGGTFSNYWMHWVRQAPGQGLEWMGATYRGHSDTYYNQKFKGRVTITADKSTSTAYMELSSLRSEDTAVYYCARGAIYHGYDVLDNWGQGTLVTVSS
VL: DIQMTQSPSSLSASVGDRVTITCSASQDISNFLNWYQQKPGKAPKLLIYYTSNLHSGVPSRFSGSGSGTDFTLTISSLQPEDFATYYCQQFRKMPWTFGQGTKLEIKR
B8: AB200-R1a-Fab_Vk11 (Fab, V domains shown)
VH: QVQLVQSGAEVKKPGSSVKVSCKASGGTFSNYWMHWVRQAPGQGLEWMGATYRGHSDTYYNQKFKGRVTITADKSTSTAYMELSSLRSEDTAVYYCARGAIYHGYDVLDNWGQGTLVTVSS
VL: DIQMTQSPSSLSASVGDRVTITCRASQDVSNYLNWYQQKPGKAPKLLIYYTTNLHSGVPSRFSGSGSGTDFTLTISSLQPEDFATYYCQQYRKLPWTFGQGTKLEIKR
B9: AB200-R1a-Fab_Vk13 (Fab, V domains shown)
VH: QVQLVQSGAEVKKPGSSVKVSCKASGGTFSNYWMHWVRQAPGQGLEWMGATYRGHSDTYYNQKFKGRVTITADKSTSTAYMELSSLRSEDTAVYYCARGAIYHGYDVLDNWGQGTLVTVSS
VL: DIQMTQSPSSLSASVGDRVTITCSASNDISNYLNWYQQKPGKAPKLLIYYSSDLHSGVPSRFSGSGSGTDFTLTISSLQPEDFATYYCQQYRKLPWTFGQGTKLEIKR
B10: AB200-R1a-Fab_Vk14 (Fab, V domains shown)
VH: QVQLVQSGAEVKKPGSSVKVSCKASGGTFSNYWMHWVRQAPGQGLEWMGATYRGHSDTYYNQKFKGRVTITADKSTSTAYMELSSLRSEDTAVYYCARGAIYHGYDVLDNWGQGTLVTVSS
VL: DIQMTQSPSSLSASVGDRVTITCSASQDISNYLNWYQQKPGKAPKLLIYYSSNMHSGVPSRFSGSGSGTDFTLTISSLQPEDFATYYCQQFRKLPWTFGQGTKLEIKR
B11: AB200-R1a-Fab_Vk17 (Fab, V domains shown)
VH: QVQLVQSGAEVKKPGSSVKVSCKASGGTFSNYWMHWVRQAPGQGLEWMGATYRGHSDTYYNQKFKGRVTITADKSTSTAYMELSSLRSEDTAVYYCARGAIYHGYDVLDNWGQGTLVTVSS
VL: DIQMTQSPSSLSASVGDRVTITCSATQDISNYLNWYQQKPGKAPKLLIYYTTNLHSGVPSRFSGSGSGTDFTLTISSLQPEDFATYYCQQYYKLPWTFGQGTKLEIKR
B12: AB200-R1a-Fab_Vk18 (Fab, V domains shown)
VH: QVQLVQSGAEVKKPGSSVKVSCKASGGTFSNYWMHWVRQAPGQGLEWMGATYRGHSDTYYNQKFKGRVTITADKSTSTAYMELSSLRSEDTAVYYCARGAIYHGYDVLDNWGQGTLVTVSS
VL: DIQMTQSPSSLSASVGDRVTITCTASQDISNYLNWYQQKPGKAPKLLIYYTSDLHIGVPSRFSGSGSGTDFTLTISSLQPEDFATYYCQQYRKLPWTFGQGTKLEIKR
B13: AB200-R1a-Fab_Vk19 (Fab, V domains shown)
VH: QVQLVQSGAEVKKPGSSVKVSCKASGGTFSNYWMHWVRQAPGQGLEWMGATYRGHSDTYYNQKFKGRVTITADKSTSTAYMELSSLRSEDTAVYYCARGAIYHGYDVLDNWGQGTLVTVSS
VL: DIQMTQSPSSLSASVGDRVTITCSASNDISNYINWYQQKPGKAPKLLIYYTSNLHSGVPSRFSGSGSGTDFTLTISSLQPEDFATYYCQQFRKLPWTFGQGTKLEIKR
B14: AB200-R1a-Fab_Vk20 (Fab, V domains shown)
VH: QVQLVQSGAEVKKPGSSVKVSCKASGGTFSNYWMHWVRQAPGQGLEWMGATYRGHSDTYYNQKFKGRVTITADKSTSTAYMELSSLRSEDTAVYYCARGAIYHGYDVLDNWGQGTLVTVSS
VL: DIQMTQSPSSLSASVGDRVTITCSASQDISNFLNWYQQKPGKAPKLLIYYTSDLHSGVPSRFSGSGSGTDFTLTISSLQPEDFATYYCQQYYKLPWTFGQGTKLEIKR
B15: AB200-R1a-Fab_Vk21 (Fab, V domains shown)
VH: QVQLVQSGAEVKKPGSSVKVSCKASGGTFSNYWMHWVRQAPGQGLEWMGATYRGHSDTYYNQKFKGRVTITADKSTSTAYMELSSLRSEDTAVYYCARGAIYHGYDVLDNWGQGTLVTVSS
VL: DIQMTQSPSSLSASVGDRVTITCSASQDISNYLNWYQQKPGKAPKLLIYYTSNLHSGVPSRFSGSGSGTDFTLTISSLQPEDFATYYCHQYKKTPWTFGQGTKLEIKR
B16: AB200-R1a-Fab_Vk22 (Fab, V domains shown)
VH: QVQLVQSGAEVKKPGSSVKVSCKASGGTFSNYWMHWVRQAPGQGLEWMGATYRGHSDTYYNQKFKGRVTITADKSTSTAYMELSSLRSEDTAVYYCARGAIYHGYDVLDNWGQGTLVTVSS
VL: DIQMTQSPSSLSASVGDRVTITCRASQDISNYLNWYQQKPGKAPKLLIYYTSNLHSGVPSRFSGSGSGTDFTLTISSLQPEDFATYYCQQYRSIPWTFGQGTKLEIKR
B17: AB200-R1a-Fab_VH16 (Fab, V domains shown)
VH: QVQLVQSGAEVKKPGSSVKVSCKASGGTFSTYWMHWVRQAPGQGLEWMGATYRIHSDTYYNQKFKGRVTITADESTSTAYMELSSLRSEDTAVYYCARGAIYHGYDVLDNWGQGTLVTVSS
VL: DIQMTQSPSSLSASVGDRVTITCSATQDISNYLNWYQQKPGKAPKLLIYFTSNLQSGVPSRFSGSGSGTDFTLTISSLQPEDFATYYCQQYRKLPWTFGQGTKLEIKR
B18: AB200-R1a-Fab_VH32 (Fab, V domains shown)
VH: QVQLVQSGAEVKKPGSSVKVSCKASGGTFSNYWMHWVRQAPGQGLEWMGATYRSHSDTYYNQKFKSRVTITADKSTSTAYMELSSLRSEDTAVYYCARGAIYHGYDVIDNWGQGTLVTVSS
VL: DIQMTQSPSSLSASVGDRVTITCSATQDISNYLNWYQQKPGKAPKLLIYFTSNLQSGVPSRFSGSGSGTDFTLTISSLQPEDFATYYCQQYRKLPWTFGQGTKLEIKR
B19: AB200-R1a-Fab_VH50 (Fab, V domains shown)
VH: QVQLVQSGAEVKKPGSSVKVSCKASGGTFSNYWMHWVRQAPGQGLEWMGATFRGHSDTYYNQKFKSRVTITADKSTSTAYMELSSLRSEDTAVYYCARGAVYHGYDVLDNWGQGTLVTVSS
VL: DIQMTQSPSSLSASVGDRVTITCSATQDISNYLNWYQQKPGKAPKLLIYFTSNLQSGVPSRFSGSGSGTDFTLTISSLQPEDFATYYCQQYRKLPWTFGQGTKLEIKR
B20: AB200-R1a-Fab_VH60 (Fab, V domains shown)
VH: QVQLVQSGAEVKKPGSSVKVSCKASGGTFSSYWMHWVRQAPGQGLEWMGATYRIHSDSYYNQKFKGRVTITADKSTSTAYMELSSLRSEDTAVYYCARGAIYHGYDVLDNWGQGTLVTVSS
VL: DIQMTQSPSSLSASVGDRVTITCSATQDISNYLNWYQQKPGKAPKLLIYFTSNLQSGVPSRFSGSGSGTDFTLTISSLQPEDFATYYCQQYRKLPWTFGQGTKLEIKR

Legend:
Assay in all cases: Octet BLI; Fab 200 nM
[1] = target: T1, extracellular domain of rhesus monkey BCMA (rhesus monkey, UniProt F7FFA0 1-53)
T1 construct: extracellular domain; also called RhBCMA
T1 sequence (F7FFA0 entry or part of it): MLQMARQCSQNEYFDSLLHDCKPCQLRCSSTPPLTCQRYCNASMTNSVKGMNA

[2] = target: T2, extracellular domain of human BCMA (human, UniProt Q02223 1-54)
T2 construct: amine-linked to Octet AR2G tips; also called hsBCMA; BCMA (human)
T2 sequence: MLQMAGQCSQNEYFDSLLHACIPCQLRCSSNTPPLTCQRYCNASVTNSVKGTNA

[3] = target: T1, extracellular domain of rhesus monkey …; remark: listed apart in the source
[4] = target: T2, extracellular domain of human BCMA; remark: listed apart in the source

Binder | Kd [1] [nM] | Kd [2] [nM] | Kd [3] [nM] | Kd [4] [nM]
B1 | 7.14 | 2.14 |  | 
B2 | 6.37 | 1.75 |  | 
B3 | 6.21 | 1.84 |  | 
B4 | 7.9 | 2.2 |  | 
B5 | 27.5 | 7.83 |  | 
B6 | 4.26 | 1.11 |  | 
B7 | 25.1 | 14.7 |  | 
B8 | 5.74 | 1.53 |  | 
B9 | 24.6 | 7.14 |  | 
B10 | 11.5 | 4.03 |  | 
B11 | 7.71 | 4.45 |  | 
B12 | 11 | 2.93 |  | 
B13 | 5.74 | 2.07 |  | 
B14 | 13.5 | 12.8 |  | 
B15 | 61.4 | 32.7 |  | 
B16 | 9.91 | 2.48 |  | 
B17 |  |  | 15.2 | 14.3
B18 |  |  | 4.17 | 1.09
B19 |  |  | 9.65 | 4.67
B20 |  |  | 17.8 | 13.6
